# Data as given in patent US20210388087A1 (Chugai, published 2021).
# B1: CE115HA000/GLS3000 F55I (antibody, IgG1, name in Kabat numbering, V domains shown)
# VH: QVQLVESGGGVVQPGRSLRLSCAASGFTFSNAWMHWVRQAPGKGLEWVAQIKAKSNNYATYYAESVKGRFTISRDDSKNSLYLQMNSLKTEDTAVYYCRYVHYGAYYGVDAWGQGTTVTVSS
# VL: DIVMTQSPLSLPVTPGEPASISCRSSQSLVHSNRNTYLHWYQQKPGQAPRLLIYKVSNRISGVPDRFSGSGSGTDFTLKISRVEAEDVGVYYCGQGTQVPYTFGQGTKLEIK
# notes: one-arm IgG1
# B2: CE115HA000/GLS3000 F55Q (antibody, IgG1, name in Kabat numbering, V domains shown)
# VH: QVQLVESGGGVVQPGRSLRLSCAASGFTFSNAWMHWVRQAPGKGLEWVAQIKAKSNNYATYYAESVKGRFTISRDDSKNSLYLQMNSLKTEDTAVYYCRYVHYGAYYGVDAWGQGTTVTVSS
# VL: DIVMTQSPLSLPVTPGEPASISCRSSQSLVHSNRNTYLHWYQQKPGQAPRLLIYKVSNRQSGVPDRFSGSGSGTDFTLKISRVEAEDVGVYYCGQGTQVPYTFGQGTKLEIK
# notes: one-arm IgG1
# B3: CE115HA000/GLS3000 F55W (antibody, IgG1, name in Kabat numbering, V domains shown)
# VH: QVQLVESGGGVVQPGRSLRLSCAASGFTFSNAWMHWVRQAPGKGLEWVAQIKAKSNNYATYYAESVKGRFTISRDDSKNSLYLQMNSLKTEDTAVYYCRYVHYGAYYGVDAWGQGTTVTVSS
# VL: DIVMTQSPLSLPVTPGEPASISCRSSQSLVHSNRNTYLHWYQQKPGQAPRLLIYKVSNRWSGVPDRFSGSGSGTDFTLKISRVEAEDVGVYYCGQGTQVPYTFGQGTKLEIK
# notes: one-arm IgG1
# B4: CE115HA000/GLS3000 F55T (antibody, IgG1, name in Kabat numbering, V domains shown)
# VH: QVQLVESGGGVVQPGRSLRLSCAASGFTFSNAWMHWVRQAPGKGLEWVAQIKAKSNNYATYYAESVKGRFTISRDDSKNSLYLQMNSLKTEDTAVYYCRYVHYGAYYGVDAWGQGTTVTVSS
# VL: DIVMTQSPLSLPVTPGEPASISCRSSQSLVHSNRNTYLHWYQQKPGQAPRLLIYKVSNRTSGVPDRFSGSGSGTDFTLKISRVEAEDVGVYYCGQGTQVPYTFGQGTKLEIK
# notes: one-arm IgG1
# B5: CE115HA000/GLS3000 F55V (antibody, IgG1, name in Kabat numbering, V domains shown)
# VH: QVQLVESGGGVVQPGRSLRLSCAASGFTFSNAWMHWVRQAPGKGLEWVAQIKAKSNNYATYYAESVKGRFTISRDDSKNSLYLQMNSLKTEDTAVYYCRYVHYGAYYGVDAWGQGTTVTVSS
# VL: DIVMTQSPLSLPVTPGEPASISCRSSQSLVHSNRNTYLHWYQQKPGQAPRLLIYKVSNRVSGVPDRFSGSGSGTDFTLKISRVEAEDVGVYYCGQGTQVPYTFGQGTKLEIK
# notes: one-arm IgG1
# B6: CE115HA000/GLS3000 F55P (antibody, IgG1, name in Kabat numbering, V domains shown)
# VH: QVQLVESGGGVVQPGRSLRLSCAASGFTFSNAWMHWVRQAPGKGLEWVAQIKAKSNNYATYYAESVKGRFTISRDDSKNSLYLQMNSLKTEDTAVYYCRYVHYGAYYGVDAWGQGTTVTVSS
# VL: DIVMTQSPLSLPVTPGEPASISCRSSQSLVHSNRNTYLHWYQQKPGQAPRLLIYKVSNRPSGVPDRFSGSGSGTDFTLKISRVEAEDVGVYYCGQGTQVPYTFGQGTKLEIK
# notes: one-arm IgG1
# B7: CE115HA000/GLS3000 F55L (antibody, IgG1, name in Kabat numbering, V domains shown)
# VH: QVQLVESGGGVVQPGRSLRLSCAASGFTFSNAWMHWVRQAPGKGLEWVAQIKAKSNNYATYYAESVKGRFTISRDDSKNSLYLQMNSLKTEDTAVYYCRYVHYGAYYGVDAWGQGTTVTVSS
# VL: DIVMTQSPLSLPVTPGEPASISCRSSQSLVHSNRNTYLHWYQQKPGQAPRLLIYKVSNRLSGVPDRFSGSGSGTDFTLKISRVEAEDVGVYYCGQGTQVPYTFGQGTKLEIK
# notes: one-arm IgG1
# B8: CE115HA000/GLS3000 F55M (antibody, IgG1, name in Kabat numbering, V domains shown)
# VH: QVQLVESGGGVVQPGRSLRLSCAASGFTFSNAWMHWVRQAPGKGLEWVAQIKAKSNNYATYYAESVKGRFTISRDDSKNSLYLQMNSLKTEDTAVYYCRYVHYGAYYGVDAWGQGTTVTVSS
# VL: DIVMTQSPLSLPVTPGEPASISCRSSQSLVHSNRNTYLHWYQQKPGQAPRLLIYKVSNRMSGVPDRFSGSGSGTDFTLKISRVEAEDVGVYYCGQGTQVPYTFGQGTKLEIK
# notes: one-arm IgG1
# B9: CE115HA000/GLS3000 F55K (antibody, IgG1, name in Kabat numbering, V domains shown)
# VH: QVQLVESGGGVVQPGRSLRLSCAASGFTFSNAWMHWVRQAPGKGLEWVAQIKAKSNNYATYYAESVKGRFTISRDDSKNSLYLQMNSLKTEDTAVYYCRYVHYGAYYGVDAWGQGTTVTVSS
# VL: DIVMTQSPLSLPVTPGEPASISCRSSQSLVHSNRNTYLHWYQQKPGQAPRLLIYKVSNRKSGVPDRFSGSGSGTDFTLKISRVEAEDVGVYYCGQGTQVPYTFGQGTKLEIK
# notes: one-arm IgG1
# B10: CE115HA000/GLS3000 G89A (antibody, IgG1, name in Kabat numbering, V domains shown)
# VH: QVQLVESGGGVVQPGRSLRLSCAASGFTFSNAWMHWVRQAPGKGLEWVAQIKAKSNNYATYYAESVKGRFTISRDDSKNSLYLQMNSLKTEDTAVYYCRYVHYGAYYGVDAWGQGTTVTVSS
# VL: DIVMTQSPLSLPVTPGEPASISCRSSQSLVHSNRNTYLHWYQQKPGQAPRLLIYKVSNRFSGVPDRFSGSGSGTDFTLKISRVEAEDVGVYYCAQGTQVPYTFGQGTKLEIK
# notes: one-arm IgG1
# B11: CE115HA000/GLS3000 F55Y (antibody, IgG1, name in Kabat numbering, V domains shown)
# VH: QVQLVESGGGVVQPGRSLRLSCAASGFTFSNAWMHWVRQAPGKGLEWVAQIKAKSNNYATYYAESVKGRFTISRDDSKNSLYLQMNSLKTEDTAVYYCRYVHYGAYYGVDAWGQGTTVTVSS
# VL: DIVMTQSPLSLPVTPGEPASISCRSSQSLVHSNRNTYLHWYQQKPGQAPRLLIYKVSNRYSGVPDRFSGSGSGTDFTLKISRVEAEDVGVYYCGQGTQVPYTFGQGTKLEIK
# notes: one-arm IgG1
# B12: CE115HA000/GLS3000 G89D (antibody, IgG1, name in Kabat numbering, V domains shown)
# VH: QVQLVESGGGVVQPGRSLRLSCAASGFTFSNAWMHWVRQAPGKGLEWVAQIKAKSNNYATYYAESVKGRFTISRDDSKNSLYLQMNSLKTEDTAVYYCRYVHYGAYYGVDAWGQGTTVTVSS
# VL: DIVMTQSPLSLPVTPGEPASISCRSSQSLVHSNRNTYLHWYQQKPGQAPRLLIYKVSNRFSGVPDRFSGSGSGTDFTLKISRVEAEDVGVYYCDQGTQVPYTFGQGTKLEIK
# notes: one-arm IgG1
# B13: CE115HA000/GLS3000 F55N (antibody, IgG1, name in Kabat numbering, V domains shown)
# VH: QVQLVESGGGVVQPGRSLRLSCAASGFTFSNAWMHWVRQAPGKGLEWVAQIKAKSNNYATYYAESVKGRFTISRDDSKNSLYLQMNSLKTEDTAVYYCRYVHYGAYYGVDAWGQGTTVTVSS
# VL: DIVMTQSPLSLPVTPGEPASISCRSSQSLVHSNRNTYLHWYQQKPGQAPRLLIYKVSNRNSGVPDRFSGSGSGTDFTLKISRVEAEDVGVYYCGQGTQVPYTFGQGTKLEIK
# notes: one-arm IgG1
# B14: CE115HA000/GLS3000 F55S (antibody, IgG1, name in Kabat numbering, V domains shown)
# VH: QVQLVESGGGVVQPGRSLRLSCAASGFTFSNAWMHWVRQAPGKGLEWVAQIKAKSNNYATYYAESVKGRFTISRDDSKNSLYLQMNSLKTEDTAVYYCRYVHYGAYYGVDAWGQGTTVTVSS
# VL: DIVMTQSPLSLPVTPGEPASISCRSSQSLVHSNRNTYLHWYQQKPGQAPRLLIYKVSNRSSGVPDRFSGSGSGTDFTLKISRVEAEDVGVYYCGQGTQVPYTFGQGTKLEIK
# notes: one-arm IgG1
# B15: CE115HA000/GLS3000 F55R (antibody, IgG1, name in Kabat numbering, V domains shown)
# VH: QVQLVESGGGVVQPGRSLRLSCAASGFTFSNAWMHWVRQAPGKGLEWVAQIKAKSNNYATYYAESVKGRFTISRDDSKNSLYLQMNSLKTEDTAVYYCRYVHYGAYYGVDAWGQGTTVTVSS
# VL: DIVMTQSPLSLPVTPGEPASISCRSSQSLVHSNRNTYLHWYQQKPGQAPRLLIYKVSNRRSGVPDRFSGSGSGTDFTLKISRVEAEDVGVYYCGQGTQVPYTFGQGTKLEIK
# notes: one-arm IgG1
# Biological target: T1, CD3 epsilon homodimer protein (UniProt P07766 23-126)
# T1 construct: also called CD3 (CD3 epsilon)
# Assay: SPR, antibody over immobilised CD3e homodimer;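 further: SPR at 25 °C with CD3 epsilon homodimer amine-coupled to a CM4 sensor chip and antibody flowed over as analyte in HBS-EP+ running buffer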
# T1 sequence (P07766 23-126): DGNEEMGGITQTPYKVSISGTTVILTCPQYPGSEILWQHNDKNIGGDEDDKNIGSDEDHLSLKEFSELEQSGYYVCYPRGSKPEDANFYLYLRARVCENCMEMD
row,Binder,KD ratio to GLS3000
1,B1,1.28
2,B2,1.09
3,B3,1.72
4,B4,2.42
5,B5,1.12
6,B6,1.15
7,B7,1.43
8,B8,1.29
9,B9,1.55
10,B10,1.1
11,B11,1.13
12,B12,1.96
13,B13,0.91
14,B14,1.15
15,B15,1.27
